These results are taken from article PMC4481117.

For test [1], the target named is D100 fragment of fibrinogen (mol. weight 100,000 Da). Briefly: ELISA; solid-phase binding: wells coated with Dyn A or fibrinogen D100 overnight at 4 °C, 3 % BSA; GST-αMI-domains in 20 mM Tris-HCl pH 7.4, 100 mM NaCl, 1 mM MgCl2, 1 mM CaCl2, 0.05 % Tween 20, 5 % glycerol, 1.5 h at 22 °C; detected with anti-GST mAb. (In general: An ELISA detects its analyte on a solid surface through an enzyme-linked reagent.)

Test [2] deals with integrin Mac-1 (αMβ2, CD11b/CD18) on HEK293 cells (UniProt P11215). Briefly: inhibition of cell adhesion; calcein-labeled Mac-1-HEK293 cells preincubated with 1 μg/ml NIF, added to wells coated with 2 μM Dyn A; heparin 10 μg/ml on the coated wells where named; adhesion without inhibitors = 100 %.
The target in test [3] is integrin Mac-1 on IC-21 murine macrophages (mouse (endogenous in IC-21)) (UniProt P05555).
integrin Mac-1 on IC-21 murine macrophages (mouse (endogenous in IC-21)), sequence (P05555 17-1153, chain 1 of 2): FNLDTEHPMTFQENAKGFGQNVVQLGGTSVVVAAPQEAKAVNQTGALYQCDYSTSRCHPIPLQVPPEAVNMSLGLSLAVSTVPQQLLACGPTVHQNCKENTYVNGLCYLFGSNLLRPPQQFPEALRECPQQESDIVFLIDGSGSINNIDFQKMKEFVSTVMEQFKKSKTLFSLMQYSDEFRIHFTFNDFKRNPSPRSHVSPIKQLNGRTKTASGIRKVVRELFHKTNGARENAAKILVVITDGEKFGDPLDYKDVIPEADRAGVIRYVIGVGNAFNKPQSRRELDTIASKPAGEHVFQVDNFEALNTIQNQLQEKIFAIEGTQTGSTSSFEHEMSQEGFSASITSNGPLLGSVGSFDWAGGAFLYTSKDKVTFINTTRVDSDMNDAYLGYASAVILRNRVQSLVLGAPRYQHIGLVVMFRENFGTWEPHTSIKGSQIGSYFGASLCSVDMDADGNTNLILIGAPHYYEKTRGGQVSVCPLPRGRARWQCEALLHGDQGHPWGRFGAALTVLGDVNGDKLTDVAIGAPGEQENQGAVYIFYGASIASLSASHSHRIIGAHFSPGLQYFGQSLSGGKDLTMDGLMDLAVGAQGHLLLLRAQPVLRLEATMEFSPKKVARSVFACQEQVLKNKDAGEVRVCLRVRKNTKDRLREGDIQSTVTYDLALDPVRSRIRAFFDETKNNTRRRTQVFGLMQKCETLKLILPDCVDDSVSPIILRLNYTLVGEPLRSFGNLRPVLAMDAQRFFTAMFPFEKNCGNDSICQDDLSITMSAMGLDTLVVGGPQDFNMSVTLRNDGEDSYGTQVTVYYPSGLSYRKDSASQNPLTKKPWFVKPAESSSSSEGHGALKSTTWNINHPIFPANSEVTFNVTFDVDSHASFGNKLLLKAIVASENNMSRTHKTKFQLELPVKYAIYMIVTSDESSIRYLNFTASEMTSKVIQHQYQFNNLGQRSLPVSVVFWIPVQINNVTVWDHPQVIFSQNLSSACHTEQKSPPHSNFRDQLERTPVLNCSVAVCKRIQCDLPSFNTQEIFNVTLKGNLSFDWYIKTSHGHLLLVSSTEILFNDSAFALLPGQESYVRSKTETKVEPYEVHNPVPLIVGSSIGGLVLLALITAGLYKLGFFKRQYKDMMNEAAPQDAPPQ
integrin Mac-1 on IC-21 murine macrophages (mouse (endogenous in IC-21)), sequence (P11835 24-771, chain 2 of 2, further chain): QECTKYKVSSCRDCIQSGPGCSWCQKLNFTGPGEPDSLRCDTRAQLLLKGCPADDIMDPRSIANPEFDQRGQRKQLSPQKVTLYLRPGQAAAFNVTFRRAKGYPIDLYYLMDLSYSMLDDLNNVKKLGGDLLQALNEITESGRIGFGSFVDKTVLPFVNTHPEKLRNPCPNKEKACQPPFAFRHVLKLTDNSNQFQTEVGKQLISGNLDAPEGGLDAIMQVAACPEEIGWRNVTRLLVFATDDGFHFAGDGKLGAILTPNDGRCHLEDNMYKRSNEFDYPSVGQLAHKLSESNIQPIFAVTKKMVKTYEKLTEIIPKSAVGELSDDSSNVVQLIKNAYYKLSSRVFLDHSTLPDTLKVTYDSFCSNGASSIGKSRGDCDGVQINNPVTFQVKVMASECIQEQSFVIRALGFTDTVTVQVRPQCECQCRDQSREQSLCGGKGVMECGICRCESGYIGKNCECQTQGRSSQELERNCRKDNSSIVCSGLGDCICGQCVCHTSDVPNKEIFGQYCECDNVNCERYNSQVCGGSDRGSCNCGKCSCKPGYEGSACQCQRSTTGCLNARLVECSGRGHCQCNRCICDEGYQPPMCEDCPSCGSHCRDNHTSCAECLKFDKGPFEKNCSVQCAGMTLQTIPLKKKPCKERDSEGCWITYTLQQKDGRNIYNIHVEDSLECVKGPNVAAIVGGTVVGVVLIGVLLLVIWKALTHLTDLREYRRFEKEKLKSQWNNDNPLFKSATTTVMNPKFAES

A value given as a limit tells only on which side of the number the result lay.

In test [1], “GST-αMI-domain, active conformation (residues Glu123-Lys315) (from UniProt P11215 139-331) (domain or fragment)” had a fold binding over the nonactive αMI-domain of 3.5 fold.
As to “Neutrophil inhibitory factor (NIF) (natural protein)”, in test [2], the percent inhibition of the adhesion of Mac-1-HEK293 cells to Dyn A (2 μM coating) was 65% and the percent inhibition of the adhesion of Mac-1-HEK293 cells to Dyn A (2 μM coating), NIF combined with heparin is over 95%. In test [3], this substance showed an inhibition by NIF (2 μg/ml) of the phagocytosis of Dyn A-coated beads by IC-21 macrophages (blocked pair: Dyn A and Mac-1) of 70%.
